In patent US20030049702:

What was measured:
[1] = target: DAP3-His6
[2] = target: T1, in vitro translated FADD (from pcDNA3-Flag-FADD), Q13158
T1 chain: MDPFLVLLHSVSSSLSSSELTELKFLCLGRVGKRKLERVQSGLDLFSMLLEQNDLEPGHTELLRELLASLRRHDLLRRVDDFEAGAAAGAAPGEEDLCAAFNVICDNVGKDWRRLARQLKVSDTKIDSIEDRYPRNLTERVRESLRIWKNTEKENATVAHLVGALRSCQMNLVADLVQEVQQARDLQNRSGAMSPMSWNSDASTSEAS

B1: in vitro translated pro-Casp8 (from pcDNA3Flag-pro-Casp8) (protein)
chain: MDFSRNLYDIGEQLDSEDLASLKFLSLDYIPQRKQEPIKDALMLFQRLQEKRMLEESNLSFLKELLFRINRLDLLITYLNTRKEEMERELQTPGRAQISAYRVMLYQISEEVSRSELRSFKFLLQEEISKCKLDDDMNLLDIFIEMEKRVILGEGKLDILKRVCAQINKSLLKIINDYEEFSKERSSSLEGSPDEFSNGEELCGVMTISDSPREQDSESQTLDKVYQMKSKPRGYCLIINNHNFAKAREKVPKLHSIRDRNGTHLDAGALTTTFEELHFEIKPHDDCTVEQIYEILKIYQLMDHSNMDCFICCILSHGDKGIIYGTDGQEAPIYELTSQFTGLKCPSLAGKPKVFFIQACQGDNYQKGIPVETDSEEQPYLEMDLSSPQTRYIPDEADFLLGMATVNNCVSYRNPAEGTWYIQSLCQSLRERCPRGDDILTILTEVNYEVSNKDDKKNMGKQMPQPTFTLRKKLVFPSD
caspase-8 activity (cleavage of Ac-IETD-AFC) in vitro [1]: increased protease activity by ˜5-fold
caspase-8 activity (cleavage of Ac-IETD-AFC) in vitro, DAP3 and FADD added together [1]: ˜10-fold increase in caspase-8 activity
caspase-8 activity (cleavage of Ac-IETD-AFC) in vitro [2]: ˜3-fold increase in caspase-8 activity
